Measured values: paper PMC9482650, “Quantitative fragmentomics allow affinity mapping of interactomes” (Nature Communications, 2022)
Residue numbers refer to the chain shown, from its start.

What was measured:
Assay in all cases: holdup assay
Set-up in all cases: key: below the threshold = too weak to quantify, mostly under pKd 3.1 to 4
Inadl_1, Q8NI35 = molecular target: Inadl_1, Q8NI35
TIAM2, Q8IVF5 = molecular target: T1, TIAM2, Q8IVF5
T1 sequence (Q8IVF5 885-986, limits assumed, looked up): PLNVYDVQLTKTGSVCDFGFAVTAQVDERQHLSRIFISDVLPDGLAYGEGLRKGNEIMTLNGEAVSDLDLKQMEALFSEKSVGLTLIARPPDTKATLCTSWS

GRID2IP_2, A4D2P6 = molecular target: GRID2IP_2, A4D2P6
GRID2IP_2, A4D2P6, sequence (A4D2P6 272-370): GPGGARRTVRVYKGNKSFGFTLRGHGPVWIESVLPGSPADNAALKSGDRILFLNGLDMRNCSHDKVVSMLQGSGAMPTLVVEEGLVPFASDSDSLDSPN

SNTG2, Q9NY99 = molecular target: T2, SNTG2, Q9NY99
T2 sequence (Q9NY99 68-166, limits assumed, looked up): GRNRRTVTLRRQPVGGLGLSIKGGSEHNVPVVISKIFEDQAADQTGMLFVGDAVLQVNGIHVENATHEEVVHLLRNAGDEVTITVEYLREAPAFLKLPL

RADIL, Q96JH8 = molecular target: T3, RADIL, Q96JH8
T3 sequence (Q96JH8 971-1071, limits assumed, looked up): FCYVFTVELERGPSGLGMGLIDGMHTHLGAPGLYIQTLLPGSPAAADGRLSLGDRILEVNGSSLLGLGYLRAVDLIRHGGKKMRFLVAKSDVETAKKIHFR

GORASP2, Q9H8Y8 = molecular target: GORASP2, Q9H8Y8
PICK1, Q9NRD5 = molecular target: PICK1, Q9NRD5
PICK1, Q9NRD5, sequence (Q9NRD5 17-115): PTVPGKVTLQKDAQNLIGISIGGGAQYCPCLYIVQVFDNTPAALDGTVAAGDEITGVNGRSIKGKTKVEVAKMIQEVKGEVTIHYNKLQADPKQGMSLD

APBA2_1, Q99767 = molecular target: T4, APBA2_1, Q99767
T4 sequence (Q99767 563-664, limits assumed, looked up): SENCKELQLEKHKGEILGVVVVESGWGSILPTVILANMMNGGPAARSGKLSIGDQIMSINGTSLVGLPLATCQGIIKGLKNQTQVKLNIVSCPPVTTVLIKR

DLG5_1, Q8TDM6 = molecular target: DLG5_1, Q8TDM6
DLG5_1, Q8TDM6, sequence (Q8TDM6 617-713): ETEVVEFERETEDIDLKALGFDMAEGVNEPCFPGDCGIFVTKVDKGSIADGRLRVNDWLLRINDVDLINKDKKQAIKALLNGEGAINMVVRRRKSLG

PDZRN3_1, Q9UPQ7 = molecular target: T5, PDZRN3_1, Q9UPQ7
T5 sequence (Q9UPQ7 244-349, limits assumed, looked up): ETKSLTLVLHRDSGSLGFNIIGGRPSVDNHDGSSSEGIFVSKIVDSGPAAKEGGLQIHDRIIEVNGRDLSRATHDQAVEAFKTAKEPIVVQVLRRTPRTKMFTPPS

LIN7A, O14910 = molecular target: T6, LIN7A, O14910
T6 sequence (O14910 103-200, limits assumed, looked up): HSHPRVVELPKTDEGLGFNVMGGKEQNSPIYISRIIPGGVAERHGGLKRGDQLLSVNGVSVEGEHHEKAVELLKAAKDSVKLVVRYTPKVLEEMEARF

MAGI1_1, Q96QZ7 = molecular target: MAGI1_1, Q96QZ7
MAGI1_1, Q96QZ7, sequence (Q96QZ7 1-106): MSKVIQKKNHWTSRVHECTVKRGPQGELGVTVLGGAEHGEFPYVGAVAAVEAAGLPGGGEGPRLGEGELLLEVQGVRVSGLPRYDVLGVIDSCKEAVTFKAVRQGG

SNTG1, Q9NSN8 = molecular target: T7, SNTG1, Q9NSN8
T7 sequence (Q9NSN8 52-150, limits assumed, looked up): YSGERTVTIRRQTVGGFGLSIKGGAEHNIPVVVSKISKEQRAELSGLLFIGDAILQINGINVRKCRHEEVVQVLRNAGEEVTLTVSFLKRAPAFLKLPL

TX1BP3, O14907 = molecular target: T8, TX1BP3, O14907
T8 sequence (O14907 10-122, limits assumed, looked up): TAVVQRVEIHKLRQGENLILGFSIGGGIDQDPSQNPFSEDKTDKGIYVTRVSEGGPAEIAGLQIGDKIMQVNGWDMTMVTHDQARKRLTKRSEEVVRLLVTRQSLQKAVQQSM

DLG3_2, Q92796 = molecular target: T9, DLG3_2, Q92796
T9 sequence (Q92796 221-321, limits assumed, looked up): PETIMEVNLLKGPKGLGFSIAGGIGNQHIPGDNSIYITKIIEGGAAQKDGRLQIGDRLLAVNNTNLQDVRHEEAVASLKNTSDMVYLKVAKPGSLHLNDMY

CASK, O14936 = molecular target: CASK, O14936
CASK, O14936, sequence (O14936 487-570): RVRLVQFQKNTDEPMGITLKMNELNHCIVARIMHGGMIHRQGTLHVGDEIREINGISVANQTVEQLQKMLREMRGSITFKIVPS

NHERF4_2, Q86UT5 = molecular target: NHERF4_2, Q86UT5
NHERF4_2, Q86UT5, sequence (Q86UT5 220-308): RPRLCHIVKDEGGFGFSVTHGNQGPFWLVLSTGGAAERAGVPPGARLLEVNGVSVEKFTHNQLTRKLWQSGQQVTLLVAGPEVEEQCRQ

LIN7B, Q9HAP6 = molecular target: T10, LIN7B, Q9HAP6
T10 sequence (Q9HAP6 88-185, limits assumed, looked up): T6 sequence (O14910 103-200, limits assumed, looked up) with S2A, V20I, I35V, E42D, H65Q, K77Q, D78G, K89R

SNTA1, Q13424 = molecular target: T11, SNTA1, Q13424
T11 sequence (Q13424 82-180, limits assumed, looked up): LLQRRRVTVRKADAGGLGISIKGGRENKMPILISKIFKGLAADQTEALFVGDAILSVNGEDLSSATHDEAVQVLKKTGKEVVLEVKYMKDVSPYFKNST

FRMPD4, Q14CM0 = molecular target: FRMPD4, Q14CM0
FRMPD4, Q14CM0, sequence (Q14CM0 67-160): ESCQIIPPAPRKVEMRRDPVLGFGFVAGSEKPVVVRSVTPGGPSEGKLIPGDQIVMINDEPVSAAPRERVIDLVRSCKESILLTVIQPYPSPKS

ARHGEF12, Q9NZN5-2 = molecular target: ARHGEF12, Q9NZN5-2
ARHGEF12, Q9NZN5-2, sequence (Q9NZN5 other isoform, or with tags, fused parts or gaps): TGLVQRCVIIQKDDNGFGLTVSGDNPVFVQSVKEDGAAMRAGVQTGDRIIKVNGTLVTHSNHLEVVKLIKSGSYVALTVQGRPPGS

MAST2, Q6P0Q8 = molecular target: MAST2, Q6P0Q8
MAST2, Q6P0Q8, sequence (Q6P0Q8 1099-1202): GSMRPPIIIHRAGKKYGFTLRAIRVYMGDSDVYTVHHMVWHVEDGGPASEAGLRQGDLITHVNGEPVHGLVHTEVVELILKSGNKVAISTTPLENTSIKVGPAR

DLG3_1, Q92796 = molecular target: T12, DLG3_1, Q92796
T12 sequence (Q92796 125-227, limits assumed, looked up): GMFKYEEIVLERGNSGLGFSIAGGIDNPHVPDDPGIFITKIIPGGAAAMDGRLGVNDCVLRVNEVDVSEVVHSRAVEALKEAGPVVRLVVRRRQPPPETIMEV

TJP1_2, Q07157 = molecular target: TJP1_2, Q07157
TJP1_2, Q07157, sequence (Q07157 181-274): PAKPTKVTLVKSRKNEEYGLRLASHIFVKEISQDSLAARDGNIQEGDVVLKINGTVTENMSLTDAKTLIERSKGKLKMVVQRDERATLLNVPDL

[1] = plain residues with an end cap or a label only (N-terminal biotin on a linker: ado-ado)
[2] = modified: phospho on T at position -2 from the C-terminal residue

Inadl_1, Q8NI35, sequence (Q8NI35 113-229): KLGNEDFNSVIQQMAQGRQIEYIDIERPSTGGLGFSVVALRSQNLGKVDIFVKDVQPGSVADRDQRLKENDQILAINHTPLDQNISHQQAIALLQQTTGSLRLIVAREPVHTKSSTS

EDGESWEYQI [TRPV6, Q9H1D0]
pKd (Inadl_1, Q8NI35; [1]): 4.41 | pKd (TIAM2, Q8IVF5; [1]): 3.95 | pKd (GRID2IP_2, A4D2P6; [1]): below the threshold | pKd (SNTG2, Q9NY99; [1]): below the threshold | pKd (RADIL, Q96JH8; [1]): 3.69 | pKd (GORASP2, Q9H8Y8; [1]): 4.22 | pKd (PICK1, Q9NRD5; [1]): below the threshold | pKd (APBA2_1, Q99767; [1]): below the threshold | pKd (DLG5_1, Q8TDM6; [1]): below the threshold | pKd (PDZRN3_1, Q9UPQ7; [1]): below the threshold | pKd (LIN7A, O14910; [1]): below the threshold | pKd (MAGI1_1, Q96QZ7; [1]): below the threshold | pKd (SNTG1, Q9NSN8; [1]): 3.82 | pKd (TX1BP3, O14907; [1]): below the threshold | pKd (DLG3_2, Q92796; [1]): 4.02 | pKd (CASK, O14936; [1]): below the threshold | pKd (NHERF4_2, Q86UT5; [1]): below the threshold | pKd (LIN7B, Q9HAP6; [1]): 3.59 | pKd (SNTA1, Q13424; [1]): below the threshold | pKd (FRMPD4, Q14CM0; [1]): 3.73 | pKd (ARHGEF12, Q9NZN5-2; [1]): below the threshold | pKd (MAST2, Q6P0Q8; [1]): 4.78 | pKd (DLG3_1, Q92796; [1]): below the threshold | pKd (TJP1_2, Q07157; [1]): 3.56

SSRTRRETQL [HPV16-E6_-2P, P03126]
pKd (Inadl_1, Q8NI35; [2]): below the threshold | pKd (TIAM2, Q8IVF5; [2]): below the threshold | pKd (GRID2IP_2, A4D2P6; [2]): below the threshold | pKd (SNTG2, Q9NY99; [2]): below the threshold | pKd (RADIL, Q96JH8; [2]): below the threshold | pKd (GORASP2, Q9H8Y8; [2]): below the threshold | pKd (PICK1, Q9NRD5; [2]): below the threshold | pKd (APBA2_1, Q99767; [2]): below the threshold | pKd (DLG5_1, Q8TDM6; [2]): below the threshold | pKd (PDZRN3_1, Q9UPQ7; [2]): below the threshold | pKd (LIN7A, O14910; [2]): below the threshold | pKd (MAGI1_1, Q96QZ7; [2]): below the threshold | pKd (SNTG1, Q9NSN8; [2]): below the threshold | pKd (TX1BP3, O14907; [2]): 3.98 | pKd (DLG3_2, Q92796; [2]): below the threshold | pKd (CASK, O14936; [2]): below the threshold | pKd (NHERF4_2, Q86UT5; [2]): below the threshold | pKd (LIN7B, Q9HAP6; [2]): below the threshold | pKd (SNTA1, Q13424; [2]): below the threshold | pKd (FRMPD4, Q14CM0; [2]): 3.88 | pKd (ARHGEF12, Q9NZN5-2; [2]): below the threshold | pKd (MAST2, Q6P0Q8; [2]): 3.79 | pKd (DLG3_1, Q92796; [2]): below the threshold | pKd (TJP1_2, Q07157; [2]): below the threshold

NIAESLESLV [PTPRZ1, P23471]
pKd (Inadl_1, Q8NI35; [1]): below the threshold | pKd (TIAM2, Q8IVF5; [1]): below the threshold | pKd (GRID2IP_2, A4D2P6; [1]): below the threshold | pKd (SNTG2, Q9NY99; [1]): 4.34 | pKd (RADIL, Q96JH8; [1]): 4.3 | pKd (GORASP2, Q9H8Y8; [1]): below the threshold | pKd (PICK1, Q9NRD5; [1]): below the threshold | pKd (APBA2_1, Q99767; [1]): below the threshold | pKd (DLG5_1, Q8TDM6; [1]): below the threshold | pKd (PDZRN3_1, Q9UPQ7; [1]): 4.22 | pKd (LIN7A, O14910; [1]): 4.04 | pKd (MAGI1_1, Q96QZ7; [1]): below the threshold | pKd (SNTG1, Q9NSN8; [1]): 4.94 | pKd (TX1BP3, O14907; [1]): 4.26 | pKd (DLG3_2, Q92796; [1]): 4.81 | pKd (CASK, O14936; [1]): below the threshold | pKd (NHERF4_2, Q86UT5; [1]): below the threshold | pKd (LIN7B, Q9HAP6; [1]): below the threshold | pKd (SNTA1, Q13424; [1]): 4.51 | pKd (FRMPD4, Q14CM0; [1]): below the threshold | pKd (ARHGEF12, Q9NZN5-2; [1]): below the threshold | pKd (MAST2, Q6P0Q8; [1]): 4.79 | pKd (DLG3_1, Q92796; [1]): 4.29 | pKd (TJP1_2, Q07157; [1]): below the threshold
